Values of other authors, collected in patent US20190010499.

System: IL-6
Details: binding constant used for modeling; measurement method not stated; nucleic acid type not stated; cited from earlier work

Substance | Kd
Anti-IL-6 aptamer #1 (SL1025) | 0.233 nM
Anti-IL-6 aptamer #2 (SL1032) | 1.6 nM
